Measurements reported in IntAct's records for PubMed 11932251.

Target: T1, ranb3_human RANBP3 (UniProt Q9H6Z4)
T1 sequence: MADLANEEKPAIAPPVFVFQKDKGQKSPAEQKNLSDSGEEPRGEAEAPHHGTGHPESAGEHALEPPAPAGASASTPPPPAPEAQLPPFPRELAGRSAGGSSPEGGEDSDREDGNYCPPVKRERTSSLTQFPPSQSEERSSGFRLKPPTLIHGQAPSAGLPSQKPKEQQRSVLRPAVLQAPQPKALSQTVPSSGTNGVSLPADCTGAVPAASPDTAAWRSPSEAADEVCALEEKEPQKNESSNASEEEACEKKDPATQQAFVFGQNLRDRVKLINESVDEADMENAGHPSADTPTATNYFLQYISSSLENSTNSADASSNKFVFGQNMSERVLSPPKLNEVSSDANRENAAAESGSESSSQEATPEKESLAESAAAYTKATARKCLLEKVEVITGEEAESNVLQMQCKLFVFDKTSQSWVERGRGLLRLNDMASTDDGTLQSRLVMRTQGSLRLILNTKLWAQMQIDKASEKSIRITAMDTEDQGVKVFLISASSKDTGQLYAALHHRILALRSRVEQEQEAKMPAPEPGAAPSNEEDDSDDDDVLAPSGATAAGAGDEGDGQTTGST

## GTP-binding nuclear protein Ran (Homo sapiens) (from UniProt P62826) Q69L
  effect of a mutation on the interaction: increasing interaction
